T1: GST-TULP3 full length (human, UniProt O75386-1 1-442)
T1 sequence (looked up): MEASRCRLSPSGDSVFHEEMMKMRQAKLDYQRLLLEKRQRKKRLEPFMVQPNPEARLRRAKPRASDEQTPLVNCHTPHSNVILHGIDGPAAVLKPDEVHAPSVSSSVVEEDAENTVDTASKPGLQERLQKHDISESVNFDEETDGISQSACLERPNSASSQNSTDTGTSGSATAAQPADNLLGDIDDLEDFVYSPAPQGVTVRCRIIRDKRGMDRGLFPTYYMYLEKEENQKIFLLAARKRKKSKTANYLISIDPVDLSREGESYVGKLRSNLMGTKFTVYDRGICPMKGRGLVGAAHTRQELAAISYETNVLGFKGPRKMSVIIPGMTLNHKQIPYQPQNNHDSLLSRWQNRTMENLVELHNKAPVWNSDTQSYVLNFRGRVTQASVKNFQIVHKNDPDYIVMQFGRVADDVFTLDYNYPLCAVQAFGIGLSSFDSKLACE


Biological target: T1, GST-TULP3 full length
Assay: pull-down

Binder	binding result
GFP-ARL13B full length, insect cell purified (natural protein) not shown	binds
GFP-ARL13B N-terminus (1-298 aa), insect cell purified (domain or fragment, human, UniProt Q3SXY8-1 1-298, looked up) MFSLMASCCGWFKRWREPVRKVTLLMVGLDNAGKTATAKGIQGEYPEDVAPTVGFSKINLRQGKFEVTIFDLGGGIRIRGIWKNYYAESYGVIFVVDSSDEERMEETKEAMSEMLRHPRISGKPILVLANKQDKEGALGEADVIECLSLEKLVNEHKCLCQIEPCSAISGYGKKIDKSIKKGLYWLLHVIARDFDALNERIQKETTEQRALEEQEKQERAERVRKLREERKQNEQEQAELDGTSGLAELDPEPTNPFQPIASVIIENEGKLEREKKNQKMEKDSDGCHLKHKMEHEQI	binds

From publication doi:10.1101/2021.05.25.445488 (bioRxiv, 2021)
